Test results published in patent publication US20260224754A1, “ORAL FORMULATION TO ENSURE BIOAVAILABILITY OF PEPTIDE, PROTEIN, AND NUCLEIC ACID THERAPEUTICS” (THE TRUSTEES OF COLUMBIA UNIVERSITY IN THE CITY OF NEW YORK, priority 2023, published 2026).

Key:
C2C12 cells = experiment: gene expression and PKA/cAMP in C2C12 cells treated with recombinant LCN2; assay type: cell-based, mouse
Description: (§1) Mean±SEM. *, P<0.05, Student's t test.
FIG. 37 show relative expression levels (fold over vehicle) of AcylcoA, Mcad and Ucp2 in C2C12 cells treated with increasing concentrations of recombinant Lcn2 for 4 h. Mean±SEM. *, P<0.05, Student's t test.
The in vivo results were confirmed in vitro. […] FIG. 40 summarizes how LCN2 regulate lean body mass with an increase in myogenesis and energy expenditure.

muscles of WT male mice = experiment: muscle gene expression in WT mice treated with recombinant LCN2; assay type: in vivo
Description: as §1
FIGS. 32A-32B show relative expression levels (fold over vehicle) of MyHCIIa and MyHCIIb in EDL of 12-week-old male Lcn2osb−/− or WT littermates (FIG. 32A) or 8-week-old WT male mice treated with the indicated doses of recombinant Lcn2 or vehicle (n=6/group) for 16 weeks (FIG. 32B). Mean±SEM. *, P<0.05, Student's t test.
FIGS. 34A-34B show relative expression levels (fold over vehicle) of the indicated genes in tibialis anterior of 12-week-old male Lcn2osb−/− or WT littermates (FIG. 34A) or 8-week-old WT male mice treated with 150 ng/g/day recombinant Lcn2 (n=7) or vehicle (n=8) for 16 weeks (FIG. 34B). Mean±SEM. *, P<0.05, Student's t test.
Regarding muscle function, LCN2 is required to maintain lean mass and endurance. […] Endurance measured as exercise distance of 6-month old LCN2−/− and WT littermates individually housed in cages equipped with voluntary running wheels and recorded for 14 days following a 7-day acclimation is shown in FIG. 28B. The increase in energy expenditure of overexpressed LCN2 can be explained in part from the increase in lean body mass, which is correlated to basal metabolic rate. […] Myogenic regulatory factors, namely myf5, mrf4, myoD and myoG. are transcription factors that regulate myogenesis. In the knockout mice, these myogenic factors either decreased or had little change though seems to trend to decrease.
Furthermore, the effect was studied in the specific type of type two muscle fiber. Type IIb is the classical fast twitch, white meat, glycolytic fiber type, whereas type IIa is still considered fast twitch but with oxidative capacity. It is considered in between an in between muscle fiber type between type 1, which are the slow twitch, red meat, oxidative muscle fiber, and classic type IIB. […] Both type II fibers are fast twitch, primarily glycolytic muscle fibers, but the type A ones are characterized by more mitochondria and seem to be more oxidative. […]

B1: LCN2: bone-derived hormone, also known as oncogene 24p3 or neutrophil gelatinase-associated lipocalin (protein, UniProt P80188 21-198, looked up)
Neutrophil …: QDSTSDLIPAPPLSKVPLQQNFQDNQFQGKWYVVGLAGNAILREDKDPQKMYATIYELKEDKSYNVTSVLFRKKKCDYWIRTFVPGCQPGEFTLGNIKSYPGLTSYLVRVVSTNYNQHAMVFFKKVSQNREYFKITLYGRTKELTSELKENFIRFSKSLGLPENHIVFPVPIDQCIDG
In the case of B1, the “expression of genes associated with beta-oxidation” value (C2C12 cells; 4 h) is reported as “increase in the expression of genes associated with B-oxidation”, the “expression of genes that promote mitochondrial biogenesis (NRF1, Pgc1a)” value (C2C12 cells; 4 h) is reported as “increases the expression of genes that promote mitochondrial biogenesis” and the “expression of genes that promote myogenesis” value (C2C12 cells; 4 h) is reported as “increases the expression of genes that promote myogenesis”. The PKA/cAMP activity (C2C12 cells; Western blot and ELISA) was “induces PKA/cAMP activity”, the “myosin heavy chain type IIa versus type IIb” value (muscles of WT male mice; EDL, WT male mice, 16 weeks) was “increases the amount of myosin heavy chain type IIa compared to type IIb” and the “expression of myogenic regulatory factors (myf5, mrf4, myoD, myoG)” value (muscles of WT male mice; male WT mice treated with LCN2) was “at least a twofold increase in all myogenic regulatory factors”. For the same molecule, the “expression of mitochondrial genes” value (muscles of WT male mice; tibialis anterior, WT mice treated with LCN2) was “increase in these mitochondrial genes”.
